The values below are quoted from earlier work in PMC3557855.

Some targets named below: PSGL-1 (Homo sapiens) (UniProt Q14242); ESL-1 (UniProt Q61543); GlyCAM-1 (Mus musculus) (UniProt Q02596).
What all share (test): SPR

Chain of UniProt Q02596 (Q02596 20-151): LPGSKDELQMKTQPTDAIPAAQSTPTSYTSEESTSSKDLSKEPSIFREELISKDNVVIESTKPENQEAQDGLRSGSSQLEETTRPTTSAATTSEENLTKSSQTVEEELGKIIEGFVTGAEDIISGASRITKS
Chain of UniProt Q61543 (Q61543 28-1141): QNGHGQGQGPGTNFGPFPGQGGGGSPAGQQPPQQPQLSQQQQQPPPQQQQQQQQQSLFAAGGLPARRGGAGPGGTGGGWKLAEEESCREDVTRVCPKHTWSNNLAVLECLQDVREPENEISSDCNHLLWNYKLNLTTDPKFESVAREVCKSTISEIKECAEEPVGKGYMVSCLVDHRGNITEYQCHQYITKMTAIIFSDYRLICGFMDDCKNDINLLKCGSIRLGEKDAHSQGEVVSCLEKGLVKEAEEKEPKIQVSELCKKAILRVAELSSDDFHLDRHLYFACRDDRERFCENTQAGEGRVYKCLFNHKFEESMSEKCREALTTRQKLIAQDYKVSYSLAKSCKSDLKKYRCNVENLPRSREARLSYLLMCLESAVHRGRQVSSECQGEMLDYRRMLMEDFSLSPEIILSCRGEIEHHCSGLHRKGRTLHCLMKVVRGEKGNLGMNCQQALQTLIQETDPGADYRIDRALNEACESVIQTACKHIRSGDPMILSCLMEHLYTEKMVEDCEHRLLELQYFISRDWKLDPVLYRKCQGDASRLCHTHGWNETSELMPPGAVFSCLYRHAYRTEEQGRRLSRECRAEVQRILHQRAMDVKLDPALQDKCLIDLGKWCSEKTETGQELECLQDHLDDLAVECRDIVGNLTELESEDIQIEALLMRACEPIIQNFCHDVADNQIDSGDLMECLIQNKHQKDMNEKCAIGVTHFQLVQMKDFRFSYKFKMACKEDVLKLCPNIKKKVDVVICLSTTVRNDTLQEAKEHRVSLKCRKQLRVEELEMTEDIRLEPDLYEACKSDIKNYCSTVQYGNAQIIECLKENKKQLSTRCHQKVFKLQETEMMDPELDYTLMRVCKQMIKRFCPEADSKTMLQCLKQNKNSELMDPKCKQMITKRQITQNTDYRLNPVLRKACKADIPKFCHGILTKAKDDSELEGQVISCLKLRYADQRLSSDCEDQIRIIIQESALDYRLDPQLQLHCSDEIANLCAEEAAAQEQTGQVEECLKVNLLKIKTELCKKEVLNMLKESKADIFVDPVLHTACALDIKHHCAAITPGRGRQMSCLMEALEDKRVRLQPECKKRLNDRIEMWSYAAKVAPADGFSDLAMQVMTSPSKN
Chain of UniProt Q14242 (Q14242 42-320): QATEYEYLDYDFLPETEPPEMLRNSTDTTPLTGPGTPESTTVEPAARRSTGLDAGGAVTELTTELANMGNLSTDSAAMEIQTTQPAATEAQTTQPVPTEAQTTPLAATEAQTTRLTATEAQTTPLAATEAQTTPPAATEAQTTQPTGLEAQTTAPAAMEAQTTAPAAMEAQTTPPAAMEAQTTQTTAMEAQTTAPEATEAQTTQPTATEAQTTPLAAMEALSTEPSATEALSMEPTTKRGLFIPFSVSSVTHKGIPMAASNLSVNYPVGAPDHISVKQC

Take L-selectin (from UniProt P14151): the Kd with PSGL-1 (Homo sapiens) is 47 µM. For E-selectin (from UniProt P16581), in the series with ESL-1, the Kd is 62 µM.

For the substance L-selectin (from UniProt P18337), the Kd with GlyCAM-1 (Mus musculus) was 108 µM.
